Source: patent US20210277110A1 (Janssen / Centocor, published 2021)
Like-named read-outs stand apart in the source and are kept apart here.

T1: Extracellular domain of cyno PD1 (cPD1-ECD) (Macaca fascicularis (cynomolgus))
T1 construct: Expressed with a hexahistidine tag or as Fc fusion; also called cynoPD1-ECD; cynoPD-1-ECD
T1 chain: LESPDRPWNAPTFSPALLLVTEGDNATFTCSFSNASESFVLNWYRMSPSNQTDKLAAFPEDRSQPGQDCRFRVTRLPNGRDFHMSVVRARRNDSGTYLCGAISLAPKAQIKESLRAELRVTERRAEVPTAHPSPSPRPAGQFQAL


Key:
[1] = biological target: T2, Full length human PD1 (huPD1) on cells (human, UniProt Q15116 25-288); assay: flow cytometry, PHA-stimulated Jurkat cells
T2 construct: on T cells of human donors in the MLR and CMV assays (functional); also called PD-1 on Jurkat cells
T2 sequence (Q15116 25-288 limits assumed): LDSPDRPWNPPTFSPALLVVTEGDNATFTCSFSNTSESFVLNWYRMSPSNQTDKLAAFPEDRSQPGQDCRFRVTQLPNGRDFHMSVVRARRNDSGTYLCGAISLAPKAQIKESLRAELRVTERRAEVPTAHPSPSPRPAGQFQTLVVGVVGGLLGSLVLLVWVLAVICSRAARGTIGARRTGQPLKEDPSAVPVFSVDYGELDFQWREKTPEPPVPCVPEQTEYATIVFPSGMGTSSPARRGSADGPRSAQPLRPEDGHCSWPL

[2] = biological target: T3, Extracellular domain of human PD1 (huPD1-ECD) (human, UniProt Q15116 25-169, biotinylated in the ligand inhibition assay (sites not given)); assay: SPR ProteOn, captured mAb, huPD1-ECD analyte
T3 construct: Expressed with a hexahistidine tag or as Fc fusion; also called biotinylated PD-1
T3 sequence (Q15116 25-169 limits assumed): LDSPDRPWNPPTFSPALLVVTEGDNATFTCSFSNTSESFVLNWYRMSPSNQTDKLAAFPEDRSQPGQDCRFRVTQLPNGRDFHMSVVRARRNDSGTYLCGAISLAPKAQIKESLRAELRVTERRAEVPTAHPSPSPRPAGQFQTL

[3] = biological target: T1, Extracellular domain of cyno PD1 …; assay: SPR ProteOn, cynoPD1-ECD; RANGE low replicate
Protocol: (§1) Affinity measurements using Surface Plasmon Resonance (SPR) were performed using a ProteOn XPR36 system. A biosensor surface was prepared by coupling a mixture of anti-IgG Fc modified alginate polymer layer surface of a GLC chip using the manufacturer instructions for amine-coupling chemistry. […] The collected data were processed and fitted to a Langmuir 1:1 binding model. The result for each mAb was reported in the format of kₒₙ (On-rate), koff (Off-rate) and KD (equilibrium dissociation constant).
(§2) STDEV were calculated for 3 or more replicates generated for human and cyno proteins. If less than 3 replicates were calculated, RANGE was indicated. RANGE is defined as the low and high values for the replicates tested. For samples in the Table 10 or Table 11 without value indicated in RANGE or STDEV, only one experiment was performed.

[4] = biological target: T1, Extracellular domain of cyno PD1 …; assay: SPR ProteOn, captured mAb, cynoPD1-ECD analyte
Protocol: as §1, §2

[5] = biological target: T1, Extracellular domain of cyno PD1 …; assay: SPR ProteOn, cynoPD1-ECD; RANGE high replicate
Protocol: as §1, §2

[6] = biological target: T3, Extracellular domain of human PD1 …; assay: MSD ligand inhibition, competitor coated cynoPDL1-ECD
Protocol: The ligand inhibition assay design was MSD (Mescoscale Discovery) based. A MSD plate was directly coated with ligand (cynoPDL1-ECD, huPDL1-ECD or huPDL2-ECD) and incubated overnight at 4° C. The following day, the coating solution was removed and the plate was blocked. […] Depending on the panel of antibodies to be tested, the antibodies were tested as titrations or at a fixed concentration. […] The mAbs that were positive for inhibition of ligand binding at one concentration were also tested in dose responses for inhibition of various PD-1 ligands.
Select Fabs were cloned as IgG2sigma isotype and characterized for their Jurkat cell binding and cynomolgus PD-L1 ligand inhibition at concentrations 1 μg/ml and 10 μg/ml.

[7] = biological target: T1, Extracellular domain of cyno PD1 …; assay: SPR ProteOn, cynoPD1-ECD; RANGE high replicate; RANGE high replicate
[8] = biological target: T3, Extracellular domain of human PD1 …; assay: SPR ProteOn, captured mAb, huPD1-ECD analyte; remark: listed apart in the source
Protocol: as §1
(§3) STDEV were calculated for 3 or more replicates generated for human and cyno proteins. If less than 3 replicates were calculated, RANGE is indicated. RANGE is defined as the low and high values for the replicates tested. For samples without RANGE or STDEV, only one experiment was performed

[9] = biological target: T1, Extracellular domain of cyno PD1 …; assay: SPR ProteOn, captured mAb, cynoPD1-ECD analyte
Protocol: as §1, §3

| EC50 [1] [µg/mL] | Kd [2] [nM] | koff [2] [s⁻¹] | kon [2] [M⁻¹ s⁻¹] | Kd [3] [nM] | koff [3] [s⁻¹] | kon [3] [M⁻¹ s⁻¹] | Kd [4] [nM] | koff [4] [s⁻¹] | kon [4] [M⁻¹ s⁻¹] | Kd [5] [nM] | percentage ligand not blocked at 1 µg/ml [6] [%] | percentage ligand not blocked at 10 µg/ml [6] [%] | koff [7] [s⁻¹] | kon [7] [M⁻¹ s⁻¹] | Binder | other results |
| --- | --- | --- | --- | --- | --- | --- | --- | --- | --- | --- | --- | --- | --- | --- | --- | --- |
| 0.08 | 11.4 | 0.00509 | 445000 | 9.5 | 0.00255 | 208000 | 11.5 | 0.00274 | 238000 | 14.1 | 4 | 4 | 0.00292 | 268000 | PD1B184 (antibody, human IgG2, kappa, V domains shown, IgG2sigma/kappa; VH 43, VL 50; also called PD1H3/PD1L128) VH: QVQLVQSGAEVKKPGSSVKVSCKASGGTFSSYAISWVRQAPGQGLEWMGGIIPIFGTANYAQKFQGRVTITADESTSTAYMELSSLRSEDTAVYYCARPGLAAAYDTGSLDYWGQGTLVTVSS VL: EIVLTQSPATLSLSPGERATLSCRASQSVRNYLAWYQQKPGQAPRLLIHDASNRATGIPARFSGSGSGTDFTLTISSLEPEDFAVYYCQQRNYWPLTFGQGTKVEIKR | – |
| 0.08 | 16 | 0.00844 | 527000 | 23.9 | 0.00801 | 304000 | 26.3 | 0.00839 | 320000 | 28.8 | 5 | 5 | 0.00876 | 337000 | PD1B183 (antibody, human IgG2, kappa, V domains shown, IgG2sigma/kappa; VH 43, VL 54; also called PD1H3/PD1L109) VH: QVQLVQSGAEVKKPGSSVKVSCKASGGTFSSYAISWVRQAPGQGLEWMGGIIPIFGTANYAQKFQGRVTITADESTSTAYMELSSLRSEDTAVYYCARPGLAAAYDTGSLDYWGQGTLVTVSS VL: EIVLTQSPATLSLSPGERATLSCRASQSVSSYLAWYQQKPGQAPRLLIKDASNRATGIPARFSGSGSGTDFTLTISSLEPEDFAVYYCQQRGYWPLTFGQGTKVEIKR | – |
| 0.08 | 6.87 | 0.00371 | 540000 | 5.1 | 0.00163 | 316000 | 5.23 | 0.00166 | 317000 | 5.3 | 4 | 3 | – | – | PD1B160 (antibody, human IgG2, kappa, V domains shown, IgG2sigma/kappa; VH 42, VL 51; also called PD1H131/PD1L101) VH: QVQLVQSGAEVKKPGSSVKVSCKASGGTFSSYAISWVRQAPGQGLEWMGGIIPIFDTANYAQKFQGRVTITADESTSTAYMELSSLRSEDTAVYYCARPGLAAAYDTGNLDYWGQGTLVTVSS VL: EIVLTQSPATLSLSPGERATLSCRASQSVDSYLAWYQQKPGQAPRLLIKDASDRATGIPARFSGSGSGTDFTLTISSLEPEDFAVYYCQQRGNWPLTFGQGTKVEIKR | koff [5]: 0.00168 s⁻¹; kon [5]: 317000 M⁻¹ s⁻¹ |
| 0.06 | – | 0.0117 | 541000 | 15 | 0.00486 | 290000 | 16.4 | 0.00504 | 307000 | 18 | 5 | 5 | 0.00522 | 324000 | PD1B192 (antibody, human IgG2, kappa, V domains shown, IgG2sigma/kappa; VH 43, VL 57; also called PD1H3/PD1L133) VH: QVQLVQSGAEVKKPGSSVKVSCKASGGTFSSYAISWVRQAPGQGLEWMGGIIPIFGTANYAQKFQGRVTITADESTSTAYMELSSLRSEDTAVYYCARPGLAAAYDTGSLDYWGQGTLVTVSS VL: EIVLTQSPATLSLSPGERATLSCRASQSVDSYLAWYQQKPGQAPRLLIHDASNRATGIPARFSGSGSGTDFTLTISSLEPEDFAVYYCQQRNYWPLTFGQGTKVEIKR | – |

More lines, now with the values behind:

| Binder | EC50 [1] [µg/mL] | Kd [2] [nM] | koff [2] [s⁻¹] | kon [2] [M⁻¹ s⁻¹] | Kd [3] [nM] | koff [3] [s⁻¹] | kon [3] [M⁻¹ s⁻¹] | Kd [4] [nM] | koff [4] [s⁻¹] | kon [4] [M⁻¹ s⁻¹] | Kd [5] [nM] | percentage ligand not blocked at 1 µg/ml [6] [%] | percentage ligand not blocked at 10 µg/ml [6] [%] | koff [7] [s⁻¹] | kon [7] [M⁻¹ s⁻¹] | other results |
| --- | --- | --- | --- | --- | --- | --- | --- | --- | --- | --- | --- | --- | --- | --- | --- | --- |
| PD1B177 (antibody, V domains shown, Tested as IgG2sigma; also called PD1H164/PH9L3) VH: QVQLVQSGAEVKKPGSSVKVSCKASGGTFSDYVISWVRQAPGQGLEWMGGIIPIYGTANYAQKFQGRVTITADESTSTAYMELSSLRSEDTAVYYCARGTLDRTGHLDYWGQGTLVTVSS VL: EIVLTQSPATLSLSPGERATLSCRASQSVSSYLAWYQQKPGQAPRLLIYDASNRATGIPARFSGSGSGTDFTLTISSLEPEDFAVYYCQQRSNWPLTFGQGTKVEIK | 0.05 | 5 | 0.00257 | 515000 | 6.1 | 0.00184 | 280000 | 6.47 | 0.00189 | 292000 | 6.9 | 7 | 8 | 0.00193 | 304000 | – |
| PD1B198 (antibody, V domains shown, also called PD1H163/PD1L187) VH: QVQLVQSGAEVKKPGSSVKVSCKASGGTFKSYVIHWVRQAPGQGLEWMGGIIPIFGTANYAQKFQGRVTITADESTSTAYMELSSLRSEDTAVYYCARGYVRATGMLDYWGQGTLVTVSS VL: EIVLTQSPATLSLSPGERATLSCRASQSVSSYLAWYQQKPGQAPRLLIEDASSRATGIPARFSGSGSGTDFTLTISSLEPEDFAVYYCQQRAEWPLTFGQGTKVEIK | – | – | – | – | – | – | – | – | – | – | – | – | – | – | – | Kd [8]: 10.4 nM; koff [8]: 0.00934 s⁻¹; kon [8]: 895000 M⁻¹ s⁻¹; Kd [9]: 11.2 nM; koff [9]: 0.00416 s⁻¹; kon [9]: 372000 M⁻¹ s⁻¹ |
| PD1B197 (antibody, V domains shown, also called PD1H163/PD1L185) VH: QVQLVQSGAEVKKPGSSVKVSCKASGGTFKSYVIHWVRQAPGQGLEWMGGIIPIFGTANYAQKFQGRVTITADESTSTAYMELSSLRSEDTAVYYCARGYVRATGMLDYWGQGTLVTVSS VL: EIVLTQSPATLSLSPGERATLSCRASQSVSNYLAWYQQKPGQAPRLLIYDASNRATGIPARFSGSGSGTDFTLTISSLEPEDFAVYYCQQRAYWPLTFGQGTKVEIK | – | – | – | – | – | – | – | – | – | – | – | – | – | – | – | Kd [8]: 4.9 nM; koff [8]: 0.00324 s⁻¹; kon [8]: 658000 M⁻¹ s⁻¹; Kd [9]: 4.6 nM; koff [9]: 0.00126 s⁻¹; kon [9]: 275000 M⁻¹ s⁻¹ |
| PD1B194 (antibody, V domains shown, also called PD1H170/PD1L71) VH: QVQLVQSGAEVKKPGSSVKVSCKASGGTFSSYAISWVRQAPGQGLEWMGGIIPIFDTANYAQKFQGRVTITADESTSTAYMELSSLRSEDTAVYYCARPGLAAAYDTGSLDYWGQGTLVTVSS VL: EIVLTQSPATLSLSPGERATLSCRASQSVRSYLAWYQQKPGQAPRLLIYDASYRATGIPARFSGSGSGTDFTLTISSLEPEDFAVYYCQQRDYWPLTFGQGTKVEIK | – | – | – | – | – | – | – | – | – | – | – | – | – | – | – | Kd [8]: 1.07 nM; koff [8]: 0.00096 s⁻¹; kon [8]: 897000 M⁻¹ s⁻¹; Kd [9]: 0.6 nM; koff [9]: 0.000193 s⁻¹; kon [9]: 322000 M⁻¹ s⁻¹ |
| PD1B187 (antibody, V domains shown, Tested as IgG2sigma; also called PD1H3/PD1L148) VH: QVQLVQSGAEVKKPGSSVKVSCKASGGTFSSYAISWVRQAPGQGLEWMGGIIPIFGTANYAQKFQGRVTITADESTSTAYMELSSLRSEDTAVYYCARPGLAAAYDTGSLDYWGQGTLVTVSS VL: EIVLTQSPATLSLSPGERATLSCRASQSVRSYLAWYQQKPGQAPRLLIYDASNRATGIPARFSGSGSGTDFTLTISSLEPEDFAVYYCQQRNYWPLTFGQGTKVEIK | 0.09 | 5.2 | 0.00278 | 535000 | 3.5 | 0.00128 | 220000 | 5.32 | 0.00157 | 294000 | 8.4 | 7 | 5 | 0.00185 | 370000 | – |
| PD1B114 (antibody, human IgG2, kappa, V domains shown, IgG2sigma/kappa; also called PD1H24/PH9L3) VH: QVQLVQSGAEVKKPGSSVKVSCKASGGTFSSYAISWVRQAPGQGLEWMGGIIPIFGTANYAQKFQGRVTITADESTSTAYMELSSLRSEDTAVYYCARPGLAAAYDTGNLDYWGQGTLVTVSS VL: EIVLTQSPATLSLSPGERATLSCRASQSVSSYLAWYQQKPGQAPRLLIYDASNRATGIPARFSGSGSGTDFTLTISSLEPEDFAVYYCQQRSNWPLTFGQGTKVEIKR | 0.47 | 54.1 | 0.0279 | 517000 | – | – | – | 81.5 | 0.0239 | 294000 | – | 8 | 13 | – | – | – |
| PD1B185 (antibody, human IgG2, kappa, V domains shown, IgG2sigma/kappa; VH 43, VL 55; also called PD1H3/PD1L132) VH: QVQLVQSGAEVKKPGSSVKVSCKASGGTFSSYAISWVRQAPGQGLEWMGGIIPIFGTANYAQKFQGRVTITADESTSTAYMELSSLRSEDTAVYYCARPGLAAAYDTGSLDYWGQGTLVTVSS VL: EIVLTQSPATLSLSPGERATLSCRASQSVRNYLAWYQQKPGQAPRLLIYDASDRATGIPARFSGSGSGTDFTLTISSLEPEDFAVYYCQQRWNWPLTFGQGTKVEIKR | 0.09 | 13.1 | 0.00765 | 585000 | 27.5 | 0.00938 | 280000 | 30.5 | 0.00947 | 311000 | 34.1 | 8 | 5 | – | 343000 | koff [5]: 0.00955 s⁻¹ |
